Reference: PMC3735183

Biological target: human secretory immunoglobulin A (SIgA) (human) (UniProt P01833)
Assay: SPR

Sequence of UniProt P01833 (P01833 whole entry, looked up): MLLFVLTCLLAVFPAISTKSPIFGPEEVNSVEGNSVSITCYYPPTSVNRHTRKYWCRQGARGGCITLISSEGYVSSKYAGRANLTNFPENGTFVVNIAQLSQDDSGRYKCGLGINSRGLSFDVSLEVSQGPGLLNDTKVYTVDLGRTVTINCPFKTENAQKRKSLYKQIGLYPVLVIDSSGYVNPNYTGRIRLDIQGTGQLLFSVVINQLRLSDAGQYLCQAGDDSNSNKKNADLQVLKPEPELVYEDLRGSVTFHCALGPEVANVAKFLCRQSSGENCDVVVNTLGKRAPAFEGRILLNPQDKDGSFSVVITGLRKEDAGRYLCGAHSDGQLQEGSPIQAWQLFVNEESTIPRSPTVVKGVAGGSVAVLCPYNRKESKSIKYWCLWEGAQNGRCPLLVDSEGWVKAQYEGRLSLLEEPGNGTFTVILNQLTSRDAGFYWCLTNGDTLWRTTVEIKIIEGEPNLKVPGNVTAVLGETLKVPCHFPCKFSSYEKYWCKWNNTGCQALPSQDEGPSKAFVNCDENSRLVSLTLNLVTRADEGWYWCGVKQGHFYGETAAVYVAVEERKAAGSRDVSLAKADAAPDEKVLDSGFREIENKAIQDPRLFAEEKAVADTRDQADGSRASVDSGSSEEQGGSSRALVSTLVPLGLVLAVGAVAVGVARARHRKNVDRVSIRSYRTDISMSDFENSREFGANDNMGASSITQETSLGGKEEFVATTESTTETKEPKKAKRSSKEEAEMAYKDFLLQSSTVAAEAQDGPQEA

EsiB (E. coli secretory immunoglobulin A-binding protein), recombinant, without signal peptide (natural protein)
Kd: 30.2 µM
koff: 0.042 s⁻¹
kon: 1390 M⁻¹ s⁻¹
